The supplement of paper PMC9112550, “Optimization of the antimicrobial peptide Bac7 by deep mutational scanning” (BMC Biology, 2022)

System: Escherichia coli TOP10
Test: shrunken log2 fold change of peptide-encoding DNA abundance (4.5 h post-induction vs induction); higher = less antimicrobial activity (less host growth inhibition)
Conditions: time post-induction: 4.5 h; library: site-saturation at positions 5, 18, 19, 20
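Further: peptides expressed intracellularly from a pBAD plasmid library in pooled LB shake-flask culture, induced with 0.3% L-arabinose, DNA abundance read by NGS, three biological replicates, DESeq2 with apeglm shrinkage.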

| Sequence | shrunken log2 fold change |
| --- | --- |
| RRIRRRPPRLPRPRPRPHVDPRP | 0.027 |
| RRIRCRPPRLPRPRPRPMWPPRP | 0.481 |
| RRIRIRPPRLPRPRPRPQIKPRP | -0.853 |
| RRIRIRPPRLPRPRPRPEQYPRP | -0.0765 |
| RRIRERPPRLPRPRPRPPCWPRP | 0.0636 |
| RRIRVRPPRLPRPRPRPVATPRP | 0.212 |
| RRIRDRPPRLPRPRPRPERAPRP | 0.0972 |
| RRIRWRPPRLPRPRPRPDWSPRP | 0.0189 |
| RRIRIRPPRLPRPRPRPDNWPRP | -0.128 |
| RRIRRRPPRLPRPRPRPTANPRP | 0.589 |
| RRIRGRPPRLPRPRPRPESVPRP | 1.42 |
| RRIRTRPPRLPRPRPRPCEFPRP | -0.258 |
| RRIRVRPPRLPRPRPRPCYNPRP | -0.11 |
| RRIRDRPPRLPRPRPRPYPVPRP | 0.00705 |
| RRIRVRPPRLPRPRPRPCQHPRP | -0.09 |
| RRIRSRPPRLPRPRPRPIAQPRP | -0.0267 |
| RRIRLRPPRLPRPRPRPHQGPRP | -0.0634 |
| RRIRNRPPRLPRPRPRPEQFPRP | -0.0122 |
| RRIRERPPRLPRPRPRPCYDPRP | -1.93 |
| RRIRFRPPRLPRPRPRPIETPRP | -0.186 |
| RRIRYRPPRLPRPRPRPIKNPRP | -0.275 |
| RRIRARPPRLPRPRPRPNCWPRP | 0.563 |
| RRIRERPPRLPRPRPRPIMFPRP | -0.193 |
| RRIRARPPRLPRPRPRPNQQPRP | 0.284 |
| RRIRYRPPRLPRPRPRPVLWPRP | 0.0894 |

| Sequence | shrunken log2 fold change |
| --- | --- |
| RRIRNRPPRLPRPRPRPAFTPRP | -0.176 |
| RRIRYRPPRLPRPRPRPRIFPRP | -0.603 |
| RRIRYRPPRLPRPRPRPFMVPRP | -1.05 |
| RRIRVRPPRLPRPRPRPGESPRP | 0.0694 |
| RRIRGRPPRLPRPRPRPNVHPRP | 0.167 |
| RRIRYRPPRLPRPRPRPYQVPRP | -0.289 |
| RRIRDRPPRLPRPRPRPDFMPRP | 0.161 |
| RRIRVRPPRLPRPRPRPGWPPRP | 0.433 |
| RRIRIRPPRLPRPRPRPEYYPRP | -0.198 |
| RRIRPRPPRLPRPRPRPGIIPRP | -0.0894 |
| RRIRKRPPRLPRPRPRPNLNPRP | -0.356 |
| RRIRLRPPRLPRPRPRPEADPRP | 0.357 |
| RRIRCRPPRLPRPRPRPTYHPRP | -0.815 |
| RRIRWRPPRLPRPRPRPVVAPRP | 0.28 |
| RRIRMRPPRLPRPRPRPYTQPRP | -0.149 |
| RRIRPRPPRLPRPRPRPDIEPRP | -0.215 |
| RRIRRRPPRLPRPRPRPVIVPRP | -0.114 |
| RRIRLRPPRLPRPRPRPKRYPRP | 0.0464 |
| RRIRQRPPRLPRPRPRPSGHPRP | -0.0673 |
| RRIRFRPPRLPRPRPRPSCLPRP | -0.502 |
| RRIRQRPPRLPRPRPRPFWHPRP | -0.469 |
| RRIRNRPPRLPRPRPRPPIAPRP | -0.312 |
| RRIRKRPPRLPRPRPRPMKAPRP | -0.00163 |
| RRIRLRPPRLPRPRPRPAHSPRP | 0.0693 |
| RRIRCRPPRLPRPRPRPNQKPRP | 0.184 |

| Sequence | shrunken log2 fold change |
| --- | --- |
| RRIRLRPPRLPRPRPRPKHPPRP | -0.09 |
| RRIRSRPPRLPRPRPRPNWGPRP | -0.0911 |
| RRIRKRPPRLPRPRPRPFQEPRP | 0.149 |
| RRIRGRPPRLPRPRPRPLYHPRP | 3.13 |
| RRIRSRPPRLPRPRPRPFVMPRP | -0.0833 |
| RRIRPRPPRLPRPRPRPGCWPRP | 0.621 |
| RRIRLRPPRLPRPRPRPNPTPRP | -0.149 |
| RRIRDRPPRLPRPRPRPRMGPRP | 0.161 |
| RRIRSRPPRLPRPRPRPGVNPRP | -0.398 |
| RRIRGRPPRLPRPRPRPVVCPRP | 0.812 |
| RRIRIRPPRLPRPRPRPSEMPRP | -0.553 |
| RRIRSRPPRLPRPRPRPYMAPRP | -0.539 |
| RRIRYRPPRLPRPRPRPIADPRP | 0.0616 |
| RRIRIRPPRLPRPRPRPNDPPRP | -0.19 |
| RRIRVRPPRLPRPRPRPKLWPRP | 0.127 |
| RRIRFRPPRLPRPRPRPTGLPRP | -0.118 |
| RRIRSRPPRLPRPRPRPYHSPRP | -0.181 |
| RRIRVRPPRLPRPRPRPAQLPRP | 0.0744 |
| RRIRRRPPRLPRPRPRPNENPRP | 0.256 |
| RRIRPRPPRLPRPRPRPQTDPRP | -0.0886 |
| RRIRHRPPRLPRPRPRPHESPRP | -0.0218 |
| RRIRQRPPRLPRPRPRPSSRPRP | -0.14 |
| RRIRERPPRLPRPRPRPRKFPRP | 0.173 |
| RRIRMRPPRLPRPRPRPTQRPRP | 0.968 |
| RRIRMRPPRLPRPRPRPIPYPRP | 0.013 |

| Sequence | shrunken log2 fold change |
| --- | --- |
| RRIRSRPPRLPRPRPRPSRYPRP | -0.148 |
| RRIRIRPPRLPRPRPRPGCCPRP | -0.04 |
| RRIRNRPPRLPRPRPRPDCPPRP | -0.031 |
| RRIRERPPRLPRPRPRPDYGPRP | -0.015 |
| RRIRYRPPRLPRPRPRPRTNPRP | -0.492 |
| RRIRKRPPRLPRPRPRPSRCPRP | 0.392 |
| RRIRNRPPRLPRPRPRPRFQPRP | 0.0932 |
| RRIRLRPPRLPRPRPRPKYKPRP | -0.486 |
| RRIRPRPPRLPRPRPRPHGGPRP | 0.216 |
| RRIRYRPPRLPRPRPRPGFRPRP | -0.322 |
| RRIRLRPPRLPRPRPRPWHDPRP | -0.205 |
| RRIRFRPPRLPRPRPRPHLRPRP | -0.19 |
| RRIRQRPPRLPRPRPRPICTPRP | -0.0531 |
| RRIRWRPPRLPRPRPRPERAPRP | 0.707 |
| RRIRVRPPRLPRPRPRPDMHPRP | -0.107 |
| RRIRSRPPRLPRPRPRPYKAPRP | -0.0488 |
| RRIRMRPPRLPRPRPRPIAHPRP | -0.0202 |
| RRIRIRPPRLPRPRPRPRWMPRP | 0.341 |
| RRIRPRPPRLPRPRPRPMRDPRP | 0.467 |
| RRIRHRPPRLPRPRPRPVYIPRP | -0.0204 |
| RRIRFRPPRLPRPRPRPIRKPRP | -0.0472 |
| RRIRWRPPRLPRPRPRPQTPPRP | 1.07 |
| RRIRMRPPRLPRPRPRPQSSPRP | -0.0185 |
| RRIRDRPPRLPRPRPRPGKPPRP | 0.0599 |
| RRIRKRPPRLPRPRPRPLVVPRP | -0.0832 |

| Sequence | shrunken log2 fold change |
| --- | --- |
| RRIRMRPPRLPRPRPRPRGCPRP | 1.08 |
| RRIRGRPPRLPRPRPRPYHYPRP | -0.149 |
| RRIRIRPPRLPRPRPRPIKWPRP | -0.118 |
| RRIRNRPPRLPRPRPRPRGFPRP | 0.443 |
| RRIRKRPPRLPRPRPRPEEYPRP | 0.0303 |
| RRIRKRPPRLPRPRPRPILMPRP | 0.0297 |
| RRIRGRPPRLPRPRPRPAWPPRP | 0.892 |
| RRIRDRPPRLPRPRPRPEEYPRP | 0.0208 |
| RRIRCRPPRLPRPRPRPSPNPRP | -0.102 |
| RRIRTRPPRLPRPRPRPVWHPRP | 0.095 |
| RRIRWRPPRLPRPRPRPLMAPRP | 0.247 |
| RRIRVRPPRLPRPRPRPQCVPRP | -0.218 |
| RRIRYRPPRLPRPRPRPMKMPRP | -0.528 |
| RRIRDRPPRLPRPRPRPGQYPRP | -0.0267 |
| RRIRHRPPRLPRPRPRPAWHPRP | -0.132 |
| RRIRHRPPRLPRPRPRPENAPRP | 0.14 |
| RRIRLRPPRLPRPRPRPHVKPRP | -0.333 |
| RRIRTRPPRLPRPRPRPGGSPRP | 0.135 |
| RRIRGRPPRLPRPRPRPHNWPRP | 0.18 |
| RRIRERPPRLPRPRPRPIYYPRP | -0.726 |
| RRIRFRPPRLPRPRPRPEFQPRP | 0.0542 |
| RRIRPRPPRLPRPRPRPLENPRP | -0.00388 |
| RRIRCRPPRLPRPRPRPIPIPRP | -0.0907 |
| RRIRDRPPRLPRPRPRPMEMPRP | 0.0165 |
| RRIRYRPPRLPRPRPRPFTRPRP | -0.0174 |

| Sequence | shrunken log2 fold change |
| --- | --- |
| RRIRSRPPRLPRPRPRPGLYPRP | -0.106 |
| RRIRWRPPRLPRPRPRPDATPRP | 2.57 |
| RRIRRRPPRLPRPRPRPNESPRP | 0.137 |
| RRIRARPPRLPRPRPRPFHWPRP | 0.277 |
| RRIRSRPPRLPRPRPRPMCKPRP | 0.204 |
| RRIRYRPPRLPRPRPRPQAIPRP | -0.066 |
| RRIRTRPPRLPRPRPRPDRSPRP | -0.287 |
| RRIRDRPPRLPRPRPRPAYHPRP | -0.263 |
| RRIRPRPPRLPRPRPRPCKIPRP | -0.0494 |
| RRIRWRPPRLPRPRPRPTGIPRP | 0.0938 |
| RRIRYRPPRLPRPRPRPYSWPRP | -0.156 |
| RRIRMRPPRLPRPRPRPGYSPRP | -0.185 |
| RRIRFRPPRLPRPRPRPFISPRP | -0.691 |
| RRIRGRPPRLPRPRPRPRVWPRP | 0.547 |
| RRIRKRPPRLPRPRPRPSFGPRP | -0.324 |
| RRIRNRPPRLPRPRPRPWVQPRP | 0.00853 |
| RRIRFRPPRLPRPRPRPNKIPRP | -0.538 |
| RRIRKRPPRLPRPRPRPPVWPRP | 0.448 |
| RRIRLRPPRLPRPRPRPKDRPRP | 0.0663 |
| RRIRNRPPRLPRPRPRPPCDPRP | -0.0173 |
| RRIRYRPPRLPRPRPRPMCPPRP | -0.217 |
| RRIRIRPPRLPRPRPRPFMLPRP | -0.407 |
| RRIRDRPPRLPRPRPRPGVTPRP | 0.596 |
| RRIRRRPPRLPRPRPRPGGQPRP | 0.175 |
| RRIRHRPPRLPRPRPRPLWDPRP | -0.15 |
